# According to patent US20240076371A1, “COMPOSITIONS AND METHODS FOR TREATING OSTEOARTHRITIS, RHEUMATOID ARTHRITIS, AND JOINT AND TENDON DISORDERS” (BOARD OF REGENTS, THE UNIVERSITY OF TEXAS SYSTEM, priority 2021, published 2024):
# Like-named read-outs stand apart in the source and are kept apart here.
# B1: M1 antibody: antibody with variable heavy chain SEQ ID NO: 58 and variable light chain SEQ ID NO: 60; inhibits or blocks opening of Cx43 hemichannel (antibody, V domains shown)
# VH: EVQLQQPGAELVKPGASVKLSCKASGYTFTSYYMYWVKQRPGQGLEWIGGINPSNGGTNFNEKFKNKATLTVDKSSSTAYMQLSSLTSEDSAVYYCTREGNPYYTMNYWGQGTSVTVSS
# VL: DIVMTQSPSSLSVSAGEKVTMSCKSSQSLLNSGNQKTYLAWYQQKPGQPPKLLIYGASTRESGVPDRFTGSGSGTDFTLTISSVQAEDLAVYYCQNDHSYPFTFGSGTKLEIK
# Legend:
# [1] = biological target: T1, Cx43 hemichannels (HCs) in primary mouse chondrocytes (Mus musculus, UniProt P23242); assay: Ethidium bromide dye uptake assay in primary mouse chondrocytes; format: cell-based
# T1 construct: In primary mouse chondrocytes, ethidium bromide dye uptake assay; endogenous in cells; host or cells: primary mouse chondrocytes
# [2] = system: post-traumatic OA model (DMM) in male C57BL/6 mice; format: in vivo, mouse
# Procedure: Materials and Methods. Animals and surgery model. The mice used were of C57BL/6 background. The mice were housed in a temperature-controlled room with a light/dark cycle of 12 hours under specific pathogen-free conditions. Food and water were provided ad libitum. Destabilization of the medial meniscus (DMM) surgery was performed on the right knee joint of mice (Glasson S S, et al. Osteoarthritis and cartilage. 2007; 15(9):1061-9). Briefly, a 3 mm longitudinal incision over the distal patella to proximal tibial plateau was made. The joint capsule immediately medial to the patellar tendon was incised with a #15 blade and the joint capsule opened with micro-iris scissors. Blunt dissection of the fat pad over the intercondylar area was then performed to expose the intercondylar region, providing visualization of the meniscotibial ligament of the medial meniscus. Mild hemorrhage from the fat pad upon blunt dissection was controlled by pressure from absorption spears. Sectioning of medial meniscotibial ligament with micro-surgical knife, with the blade directed proximo-laterally, gave destabilization of the medial meniscus (DMM). Sham surgery was performed with the ligament visualized but not transected. Histology. At 8 weeks after the induction of osteoarthritis (OA), the femur and tibia bones isolated from DMM and sham operated mice were fixed in 4% paraformaldehyde for 2 days prior to decalcification with 10% EDTA (pH 7.5) for 3 weeks. The samples were embedded in paraffin, and 5-μm-thick sections were collected on glass slides. Sections were deparaffinized in xylene, followed by a graded series of alcohol washes. To determine the extent of cartilage deterioration, sections were stained with Safranin O/Fast Green. OARSI scoring was performed to evaluate knee joint articular cartilage destruction (Glasson S S, et al. Osteoarthritis and cartilage. 2010; 18 Suppl 3:S17-23). Specifically, both medial femoral condyle and medial tibial plateau were analyzed through three-level sections of the joints and the severity of OA is expressed as the averaged and summed scores for the entire joint. Results. Inhibition of Cx43 hemichannel ameliorates histopathological changes of OA. To investigate the function of Cx43 hemichannel in OA progression, post-traumatic OA model was induced in male C57BL/6 mice by surgically destabilization of the medial meniscus (DMM). The anti-Cx43 hemichannel blocking antibody (M1 antibody) or saline was administered by intraperitoneal injection twice at 30 minutes and four weeks post-surgery (FIG. 1A). Histological staining of Safranin O/Fast Green was utilized to visualize the severity of articular cartilage damage, which was determined using the Osteoarthritis Research Society International (OARSI) scoring system (Glasson S S, et al. Osteoarthritis and cartilage. 2010; 18 Suppl 3:S17-23) by two blinded observers (FIGS. 1B-D). […] Moreover, synovium hyperplasia was quantified by the synovitis score ([…], et al. Pathology, research and practice. 2002; 198(5):317-25; and Huesa C, et al. Annals of the rheumatic diseases. 2016; 75(11):1989-97).
# [3] = system: post-traumatic OA model (DMM) in male C57BL/6 mice; assay: DMM OA model: Von Frey filament test (paw withdrawal threshold); format: in vivo, mouse
# Procedure: (§1) Destabilization of the medial meniscus (DMM) surgery was performed on the right knee joint of mice (Glasson S S, et al. Osteoarthritis and cartilage. 2007; 15(9):1061-9). Briefly, a 3 mm longitudinal incision over the distal patella to proximal tibial plateau was made. The joint capsule immediately medial to the patellar tendon was incised with a #15 blade and the joint capsule opened with micro-iris scissors. Blunt dissection of the fat pad over the intercondylar area was then performed to expose the intercondylar region, providing visualization of the meniscotibial ligament of the medial meniscus. Mild hemorrhage from the fat pad upon blunt dissection was controlled by pressure from absorption spears. Sectioning of medial meniscotibial ligament with micro-surgical knife, with the blade directed proximo-laterally, gave destabilization of the medial meniscus (DMM). Sham surgery was performed with the ligament visualized but not transected.
# Animal behavioral tests. The paw withdraw threshold was measured using von Frey filaments 0.007 to 2. Mice were placed in acrylic chambers (5.5×10 cm) suspended above a wire mesh grid and allowed to acclimatize to the testing apparatus for 30 minutes prior to experiments. When the mouse was not moving the von Frey filaments were pressed against the plantar surface of the paw until the filament buckled and held for a maximum of 3 seconds. A positive response was noted if the paw was sharply withdrawn on application of the filament. Flinching immediately upon removal of the filament was also considered a positive response (Chaplan S R, et al. Journal of neuroscience methods. 1994; 53(1):55-63; and Bonin R P, et al. Molecular pain. 2014; 10:26). Testing began with filament number 0.4 and progressed according to an up-down method.
# [4] = system: post-traumatic OA model (DMM) in male C57BL/6 mice; assay: DMM OA model: open field test; format: in vivo, mouse
# Procedure: as §1
# Spontaneous locomotor activity was analyzed using the open-field test. Mice were placed into the center of a chamber 25×25×25 cm to allow free exploration. The experiments were performed for 10 minutes. Total travel distance, and immobility time were measured by computerized analysis. Mice behavior was recorded, and videos were analyzed by use of ANY-maze behavior tracking software (Stoelting Co., Wood Dale, IL, USA).
# [5] = single i.p. injection, eight weeks after DMM, vs saline
# [6] = 4 weeks after DMM, vs saline group
# T1 sequence (P23242 whole entry): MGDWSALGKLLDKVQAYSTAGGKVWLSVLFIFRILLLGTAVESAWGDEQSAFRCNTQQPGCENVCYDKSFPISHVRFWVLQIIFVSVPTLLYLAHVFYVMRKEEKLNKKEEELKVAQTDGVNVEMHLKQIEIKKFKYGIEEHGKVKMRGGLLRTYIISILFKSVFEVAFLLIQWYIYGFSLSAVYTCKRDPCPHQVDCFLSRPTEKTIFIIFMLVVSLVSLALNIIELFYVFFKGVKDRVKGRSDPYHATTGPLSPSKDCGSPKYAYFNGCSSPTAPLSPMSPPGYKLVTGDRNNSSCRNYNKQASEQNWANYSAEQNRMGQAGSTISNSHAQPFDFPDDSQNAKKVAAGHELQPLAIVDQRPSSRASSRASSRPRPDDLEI
molecule,measurement,setting,value
B1,IL-1β treatment induced HCs opening (ethidium bromide dye uptake),[1],blocked
same,OARSI scores in medial tibial plateau and medial femoral condyle,"[2]; DMM mice, i.p. twice at 30 minutes and four weeks post-surgery, 8 weeks after DMM, vs saline",significant reduction
same,Summed OARSI score of MTP and MFC (structural integrity of the articular cartilage),"[2]; DMM mice, i.p. twice, 8 weeks after DMM, three-level sections",significantly improved structural integrity
same,pathologic changes in the articular cartilage of sham-operated mice,"[2]; mouse, in vivo, ip",did not exhibit pathologic changes
same,OARSI scores in medial tibial plateau and medial femoral condyle,"[2]; single i.p. injection at 30 minutes post-surgery, eight weeks after DMM",significant reduction
same,proteoglycan loss and cartilage erosion (Safranin O/Fast Green),"[2]; single i.p. injection at 30 minutes post-surgery, eight weeks after DMM, vs saline",less proteoglycan loss and cartilage erosion
same,response threshold to mechanical stimuli (von Frey),"[3]; 4 weeks after DMM, vs saline",slight trend of increased response threshold
same,paw withdrawal threshold relative to saline treated DMM mice,"[3]; 8 weeks after DMM, i.p. twice",121.4%
same,"paw withdraw threshold in sham mice, saline vs antibody",[3]; sham mice at 8 weeks,No difference
same,paw withdraw threshold to mechanical stimuli (von Frey),[3]; [5],slight trend of increased paw withdraw threshold
same,distance moved (open field),[4]; [6],trend of increased distance moved
same,immobility time (open field),[4]; [6],decreased immobility time
same,pain responses: reductions in distance traveled and elevations in immobility time (open field),"[4]; 8 weeks after DMM, i.p. twice",suppressed these pain responses
same,"distance traveled and immobility time in sham mice, saline vs antibody",[4]; sham mice at 8 weeks,No difference
same,distance traveled (open field),[4]; [5],significant increase
same,immobility time (open field),[4]; [5],reduction
